According to publication PMC8149123:

How the values were obtained:
Assay in all cases: mitochondrial relocalisation (mito-tag) assay, fluorescence microscopy; ANRP fused to Tom70-HA and mCherry held at the outer mitochondrial membrane in Drosophila embryos (cells at stage 12); ectopic recruitment of endogenous CRISPR Arp3:GFP scored by colocalisation, Pearson coefficient and GFP:mCherry intensity ratio; the paper says the approach does not differentiate between direct and indirect interactions
[1] = target: UAS:mito:mCherry:Coronin (D. melanogaster)
[2] = target: UAS:mito:mCherry:Cortactin (D. melanogaster)
Sequence of UAS:mito:mCherry:Cortactin (D. melanogaster) (main, as listed by the source): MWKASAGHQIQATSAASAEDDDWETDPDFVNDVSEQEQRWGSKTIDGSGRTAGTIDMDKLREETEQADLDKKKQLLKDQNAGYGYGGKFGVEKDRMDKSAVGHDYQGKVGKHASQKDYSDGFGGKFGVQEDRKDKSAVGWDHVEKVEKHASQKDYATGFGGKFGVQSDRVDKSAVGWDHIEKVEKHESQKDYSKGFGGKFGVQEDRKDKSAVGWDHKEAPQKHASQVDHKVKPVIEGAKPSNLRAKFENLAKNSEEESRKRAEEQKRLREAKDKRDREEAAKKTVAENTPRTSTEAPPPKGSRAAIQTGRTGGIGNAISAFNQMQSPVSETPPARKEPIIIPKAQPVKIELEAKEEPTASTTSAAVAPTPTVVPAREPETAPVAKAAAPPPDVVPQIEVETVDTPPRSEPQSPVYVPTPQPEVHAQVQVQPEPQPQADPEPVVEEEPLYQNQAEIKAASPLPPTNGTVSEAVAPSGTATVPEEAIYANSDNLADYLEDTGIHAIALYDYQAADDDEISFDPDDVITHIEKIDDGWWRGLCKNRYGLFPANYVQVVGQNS

[3] = target: UAS:mito:mCherry:DPod1 (D. melanogaster)
[4] = target: UAS:mito:mCherry:Scar (D. melanogaster)

Sequence of CRISPR Arp3:GFP (P32392 whole entry): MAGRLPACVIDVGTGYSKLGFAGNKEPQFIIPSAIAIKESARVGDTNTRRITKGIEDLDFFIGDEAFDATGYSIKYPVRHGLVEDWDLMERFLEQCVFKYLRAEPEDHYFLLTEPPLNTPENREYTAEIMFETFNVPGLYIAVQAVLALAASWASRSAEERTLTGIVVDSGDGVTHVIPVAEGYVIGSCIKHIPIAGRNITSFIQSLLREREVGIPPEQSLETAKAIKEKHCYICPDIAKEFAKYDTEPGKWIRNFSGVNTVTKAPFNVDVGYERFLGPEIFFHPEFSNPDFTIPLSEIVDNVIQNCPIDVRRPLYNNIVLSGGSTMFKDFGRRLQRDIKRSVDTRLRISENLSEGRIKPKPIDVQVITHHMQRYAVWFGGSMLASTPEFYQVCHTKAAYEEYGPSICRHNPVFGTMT

Substance: CRISPR Arp3:GFP (from UniProt P32392 1-418) (natural protein)
- Pearson correlation coefficient of colocalisation [1]: 0.234
- Pearson correlation coefficient of colocalisation [2]: 0.492
- Pearson correlation coefficient of colocalisation [3]: 0.625
- Pearson correlation coefficient of colocalisation [4]: 0.313
- percent colocalization [4]: 50%
